According to the nanobody polyreactivity screen of Harvey et al. (2022):

Assay: yeast display, Sf9 membrane polyspecificity reagent, FACS + sequencing; frameworks hold sequencing errors
Outline: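 Genes from sorted yeast were amplified by colony PCR, read by MiSeq 2 × 250 sequencing and filtered on CDR length. These cells carried a synthetic nanobody library in Saccharomyces cerevisiae BJ5465 and were sorted by FACS into low and high (top ~1%) gates on anti-HA and streptavidin fluorescence. Polyreactivity is labelled according to the gate of origin.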

Sequence	polyreactivity (PSR sort gate)
QVQLVESGGGLVQAGGSLRLSCAASGSIFYQYAMGWYRLAPGKERELVARITGSSGSTYYADSVKGRFTISRDNAKNTVYLQKNSLKPEDTAVYYCATDNYLIGDYWGQGTQVTVSS	high polyreactivity
QVQLVESGGGLVQAGGSLRLSCAASGSTFVGYAMGWYRQAPGKERELVAAISRSGGRTYYADSVKGRFTISRDNAKNTVYLQMNSLKPEETAVYYCYPYYIASTFDYWGQGTQVTVSS	high polyreactivity
QVQLVESGGGLVQAGGTLRLSCAASGFNFASYAMGWYRQAPGKERELVDAITSDGSTNYADSVKGRFTISRDNAKNTVYLQMNSLKPEDTAVYYCAADPAKKYDQNTEYEYWGQGTQVTLSS	low polyreactivity
QVQLVESGGGLVQAGGSLRLSCAASVRIFRYYVMGWYRQAPGKVRELVAAITSGTSTNFAESVKGRFTISRDNAKNTVYLQMNRLKPEDTAVFYCAVRSPRGGRTRFNSNYWGQGTQVTVSS	high polyreactivity
QVQLVESGGGLVQAGGSLRLSCAASGSTFTIYAMGWYRQAPGTERELVATIRAGGGRTSYADSVKGRFTISRDNAKNTVYLQMNSLKPEETAVYYCAVYVRPTRYGYWGQGTQVTVSS	high polyreactivity
QVQHVESGGRLVQAGGILRLSCAASGRIFQSNAMGWYRQTPGKERELVAGITKRGGSTYYADSVKGRFTISLDYAKNTVYLQMNSLTPEDTAVYYCAKSWSYDPRYGSWGQGTQVTVSS	high polyreactivity
QVQLVESGGGLVQAGGSLRLSCAASGSTYHQYTMGWYRQAPRKERELVSTINNGGITNYADSLKGRFTISRDNAKKTVYLQLISQNPEDTAVYYCAADYSYYGRYGRYDYWGQGTQVTVSS	low polyreactivity
QVQLVESGGGLVQAGGSLRLSCAASGSTFLVNAMGWYRQAPGKERELVAAISRSTGSTYYADSVKGRFTISRDNAKNTVYLQMNSLKPEDTAVYYCAVYRHGYGYNYWGQGSQVTVSS	high polyreactivity
QVQLLESGGGLVQAGVSHRLSCASSGFIFTYYAMGWYRQAPGKESELVASISTYGGNTNYADSVKGRFTISRDNAKNTVYIQMNSLIPEDTAVYYCAARIGNQYHTGYPTAGRKYGYWGQGTQVSVSS	high polyreactivity
QLQLVESGGGLVQAGGSLRLSCAASGRIFQRYAMGWYRQAPGKERELVAGITSSGGSTYYADSVKGRFTISRDNAKNTVYLQMNSLKPEDTAVYYCNAGGELRYYGYRAGGTTRSYDYWGQGTQVTVSS	low polyreactivity
QVQLVESGGGLVQAGGSLRLSCAASGVIFYRNAMGWYRQAPGKERELVATIRYSGGSTYYADSVKGRFTISRDNAKNTVYLEMNSLKPEDSAVYYCNARRWYLPRRSGYGYWGQGTVVTVSS	high polyreactivity
QVQLVESGGGLVQAGGSLRLSCAASGRTFGPYAMGWYRQAPGKEREFVAAISYSGGSTYYADSVKGRFTISRDNAKNTVFLQMNSLKPEDTAVYYCAVDIDSNSGTRDYWGQGTQVTVSS	low polyreactivity
QVHLVESGGGLVQAGGSLRLSCAASGITFYIYAMGWYRQAPGTERELVAAISWRTGRTYYADSVKGRFTISRDNAKNTVYLQMNSLKPEYTAVYYCAAGVWVAGAFDYWGQGTQVNVSS	high polyreactivity
QVQLVESGGGLVQAGGSLRLSCAASGRTFVEYAMGWYRPAPGKERELVAAITWDGGSTYYADSVKGRFTISRDNAKYTVYLQMNSLKPEDTAVYYCNADYRQITSYGFDYWGQGTQVTVSS	low polyreactivity
QVQLVESGGRLVQAGGSLRLSCAASGIIFSGYAMGRYRPAPGTVREFVAAIDSVTSTYYADSVKGRFTTSRDNANNTVYLQMISLKPEVTAVYYCNARSDCTWYTLDYWGQGTQVTVSS	high polyreactivity
QVQLVESGGGLVQAGGSLRLSCAASGSNFPVYAMGWYRQAPGKEREFVAAISYSGGGTYYADSVKGRFTISRDNAKNTVYLQMNSLKPEDTAVYYCAADVSGWEYAYWGQGTQVTVSS	low polyreactivity
QGQLVESGGGLVQAGGSLRLSCAASGFIFSSNAMGLYRHAPGKERELVAAISSSGGNTYYADSVKGRFTISRDNAKKTVDLQMNSLKPEDTAVYYCAADLSSAYGHDYWGLGTQVTVSS	low polyreactivity
QVQLEESGGGLLQAGGSHSLSCAASGSTFYKYGMVWYRQAPGKEREFVAAISGSGDSTYYADSVKGRFTISRDNAKNTVYLHMNRLKPEDTAVYYCNAGPWWYLHEYDYWGQGTQVNVSS	low polyreactivity
PVQLVESGVCLVQAGGSLRLSCATPGSTIDFYAMGWYRQAPGKERELVARISSGGGRTYYADSVKGRFTISRDNAKNTVYLQMISLKPEDTAVYYCAAAYWYLDYYWGQGTQVTVSS	low polyreactivity
QVQLVESGGGLVQAGGSLRLSCAASGITFASNTMGWYRQAPGKERELVAAITRGDNTYYADSVKGRFTISRDNAKNTVYLQMNSLKPEDTSVYYCATEGYQIQYEHDYWGQGTQVTVSS	low polyreactivity
QVQLVESGGGLVQAGGSLRLSCAASGSTFHPYAMGWYRQPPGKASELVAAINWRVGSTYYADSVKGRFTISRDNAKNTVYLQMTSQIPEDTAVYYCAVSYMATLGRSRYDYWGQGTQVTVSS	low polyreactivity
QVQLVESGGGLVQAGGSLRLSCAASGSIFIYYAMGWYRQAPGKERELVASISSSGSRTYYADSVKGRFTISRDNAKNTVYLQMNSLKPEETAVYYCAARYAIPRNYPQYNYWGQGTQVTVSS	high polyreactivity

Sequence	polyreactivity (PSR sort gate)
QVQLVESGGGLVQAGGSLRLSCAASGITFNVNAMGWYRQAPGKERELVARITTSGGSTSYADSVKGRFTISRDNAKNTVYLQMNSLKPEDTAVYYFAADRARYYSEYDYWGQGTQVTVSS	low polyreactivity
QVQLVESGGGLVQAGGSLRLSCAASGSTFAPNAMGWYRQAPGKERELVAAISSGGDSTNYADSVKGRFTISRDNAKNTVYLQMNSLKPEDTAVYYCAHGYWFVAYDYWGQGTQVTVSS	low polyreactivity
QVQLVESGGGLVQAGGSLRLSCAASGRIFRYNAMGWYRQAPGKERELVATIRWGGGGTYYADSVKGRFTISRDNAKNSVYLLMNSLKPEDTAVYYCNAKRYSPGYNYWGQGTQVTVSS	high polyreactivity
HVQLQESGGGLVQAGGSLRLSCAASGNISYSRNMGWYRQAPGKERELVAAIDRGAITYYADSVQGRFTISRDNAKNTVYLQIYSLKPEDTAVYYCAAEYHDRWDHLYWGQGTQVTVSS	high polyreactivity
QVQLVDSGGGLVQEVGSLRLSCAASGSTFPFNAMGWYRQAPGKERELVATISGRGGSTYYADSVKGRFTISRDNAKNTVYLQMNSLKPEDTAVYYCAAEIHDRFDSWGQGTQVTVSS	low polyreactivity
QVQLAETGGGLVQAGGSLRLSCAASGSTFSVYAMGWYRQSPGKERELVATIPRGGSTYADSVKGRLTISRDNAKNTVYLQMNSLKPEDTAVYYCAADAYVSSQPMDYWGQGTQVTVSS	high polyreactivity
QVQLVESGGGLVQAGGSLRLSCAASGFIFYHYAMGRYRQAPGKERELVAAISWNGGRTYYADSVKGRFTISRDNAKNTVYLQMNSLKPEDTAVYYCAAYWTRVERVYWGQGTQVTVSS	high polyreactivity
QVQLEESGGGLVQAGCSLRLTCAASGSTFYSYPMGWSRQAPGKERELVAAITVSGTSTYYADSVKGRFTISRDNAKNTVYLQMYSVKPEDTAVYYCAADRRTDGHDYWGQGTQVTVSS	high polyreactivity
QVQLVESGGGLVQAGGSLRLSCAASGRTFSRYAMGWYRQAPGKERELVAAISRGGGSTNYADSVKGRFTISRDNAKNTVYLQMNSLKPEDTAVYYCASEYRYDWYTYGSWGQGTQVTVSS	high polyreactivity
QVQLVESGGGLVQAGGSLRLSCAASGSIFPYNAMGCYRQAPGKEMELVAVITSSGASTYYADSVKGRFTISLDNSKNTVYLQMNSLKPEDTAVYYCAARGYNYYFGGYDYWGQGTQVTVSS	low polyreactivity
QVKLVESGGGLFQAGGSLRLSCAASGITFTFNAMGWYRQAPGKERELVAAITWSGGSTFYADSVKGRFTISRDNAKNTVYLQMNSLKPEDTAVYYCARDTELYVRWLDYWGQGTQVTVSS	low polyreactivity
QVQLVESGGGLVQAGGSLRLSCAASGSIFWGNAMGWYRPAPGKERELVASISDSGGSTYADSVKGRFTISRDNAKNTVYLQMNSLKPEDTAVYYCAADDWYSAGIRNWYYGGYDYWGQGTQVTVSS	low polyreactivity
QVQHVESGGGLLQAGGSLRLSCAASGSIFYVYAMGWYRQAPGKERELVASISCGDSSTYYADSVKGRFTISRDNAKNTVYLQMNILIPEDTAVYYCAADDYRQYALYDYWGQGTHVTVSS	low polyreactivity
QVQLVESGGGLVQAGGSLRLSCAASGSTFYRYAMGWYRQAPGKERELVAAISSGGRTYYADSVKGRFTISRDNAKNTVYLQMNSLKPEDTAVYYCATSWTFRQGYNYWGQGTQVTVSS	high polyreactivity
QVQLVESGGGLVQAGGSLRLSCAASGRTFWAYAMGWYRQAPGKERELVAAITTSGGSTNYADSVKGRFTISRDNAKNTVYLQMNSLKPEDTAVYYCNADPTYHVVNGVGYLGQGTQVTVSS	low polyreactivity
QVQLVESGGGLVQAGGSLRLSCAASGSTFFYNAMGWSRQAPGKERELVASINDRAGRTYYADSVKGRFSISRDNAKNTVYLQMNSLKPEDTAVYYCAAEPWYKFDDDFWGQGTQVTVSS	low polyreactivity
QVQLVESGGGLVQAGGSLRLSCAASGSIFQRYAMGWYRQAPGKERECVAAISGRGGSTYYADSVKGRFTISRDNAKNTVYLQMNSLKPEDTAVYYCAADSSRFYGRPRYYYWGQGTQVTVSS	high polyreactivity
QVQLVESGGGLVQAGGSLRVSCAASGRTFGRYAMGWYRQATGKERELVAAISYSGGSTYYADSVKGRFTISRDNAKNNVYLQMNSLKPEDTAVYYCAAYYSGKDGYWGQGTQVTVSS	high polyreactivity
QVKLVESGGCLVKAGGSLRLSCAATGRIFLYYAMGWYRQAPGKEMELVATITSGGRTNYADSVKGRFTISRDNAKNTVYLQMNSLKPVDTAVYNCARQSYGSYRRYGFSALYGYLGQGTQVTVSS	high polyreactivity
QVQLVESGGGLVQAGGRLRLSCAASGSTFGYYAMGWNRQAPGKERELVAAISSRDGSTFYADSVKGRFTISRDNAKNTVFLQMNSLKPDDTAVYYCAKVFFHTPIVPEYDYCGQGTQVTVSS	low polyreactivity
QVQLVESGGGLVQAGGSLRLSCAASGRIFGHYAMGWYRQAPGKERELVAAISRGGSTYYADSVKGRFTISRDNAKNTVYLQMNSLKPEDTAVYYCNTTKAYGSLWWRGDYWGQGTQVTVSA	high polyreactivity
